# Source: publication PMC9482650, “Quantitative fragmentomics allow affinity mapping of interactomes” (Nature Communications, 2022)
# What was measured:
# Assay in all cases: holdup assay
# Design in all cases: key: below the threshold = too weak to quantify, mostly under pKd 3.1 to 4
# Settings in all cases: plain residues with an end cap or a label only (N-terminal biotin on a linker: ado-ado)
# [1] = target: PDZRN4_1, Q6ZMN7
# [2] = target: T1, MPDZ_12, O75970
# T1 sequence (O75970 1857-1958, limits assumed, looked up): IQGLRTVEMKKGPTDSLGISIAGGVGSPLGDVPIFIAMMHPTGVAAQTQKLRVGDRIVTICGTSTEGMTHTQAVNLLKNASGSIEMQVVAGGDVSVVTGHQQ
# [3] = target: T2, GRIP1_3, Q9Y3R0
# T2 sequence (Q9Y3R0 247-346, limits assumed, looked up): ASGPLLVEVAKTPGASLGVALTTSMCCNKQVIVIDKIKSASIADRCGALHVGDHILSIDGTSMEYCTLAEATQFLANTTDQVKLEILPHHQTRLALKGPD
# [4] = target: MAGI1_2, Q96QZ7
# [5] = target: IL16_1, Q14005
# [6] = target: T3, HTRA3, P83110
# T3 sequence (P83110 354-453, limits assumed, looked up): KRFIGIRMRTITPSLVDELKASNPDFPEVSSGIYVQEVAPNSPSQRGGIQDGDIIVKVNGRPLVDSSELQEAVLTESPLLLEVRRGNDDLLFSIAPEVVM
# [7] = target: GIPC2, Q8TF65
# [8] = target: NHERF4_2, Q86UT5
# [9] = target: SCRIB_1, Q14160
# [10] = target: LNX1_1, Q8TBB1
# [11] = target: LNX1_3, Q8TBB1
# [12] = target: T4, RHPN1, Q8TCX5
# T4 sequence (Q8TCX5 508-602, limits assumed, looked up): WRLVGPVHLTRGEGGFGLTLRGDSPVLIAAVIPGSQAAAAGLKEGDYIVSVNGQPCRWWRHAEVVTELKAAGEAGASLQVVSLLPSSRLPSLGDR
# [13] = target: LDB3, O75112
# [14] = target: GRIP2_5, Q9C0E4
# [15] = target: TJP1_2, Q07157
# [16] = target: NHERF4_4, Q86UT5
# [17] = target: DLG5_1, Q8TDM6
# [18] = target: T5, LNX2_3, Q8N448
# T5 sequence (Q8N448 463-564, limits assumed, looked up): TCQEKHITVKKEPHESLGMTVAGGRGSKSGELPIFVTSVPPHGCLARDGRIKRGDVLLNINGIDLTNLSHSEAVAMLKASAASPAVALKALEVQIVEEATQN
# [19] = target: Inadl_10, Q8NI35
# [20] = target: T6, ARHGEF11, O15085
# T6 sequence (O15085 42-136, limits assumed, looked up): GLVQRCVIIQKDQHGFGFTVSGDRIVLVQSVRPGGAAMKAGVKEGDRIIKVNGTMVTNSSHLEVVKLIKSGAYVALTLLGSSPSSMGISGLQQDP
# [21] = target: TJP1_3, Q07157
# [22] = target: T7, DVL3, Q92997
# T7 sequence (Q92997 244-331, limits assumed, looked up): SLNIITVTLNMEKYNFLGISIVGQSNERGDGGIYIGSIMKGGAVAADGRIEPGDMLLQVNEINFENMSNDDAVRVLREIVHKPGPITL
# [23] = target: GRASP, Q7Z6J2
# [24] = target: NHERF4_1, Q86UT5-2
# [25] = target: MAGI2_3, Q86UL8
# [26] = target: T8, LRRC7, Q96NW7
# T8 sequence (Q96NW7 1440-1537, limits assumed, looked up): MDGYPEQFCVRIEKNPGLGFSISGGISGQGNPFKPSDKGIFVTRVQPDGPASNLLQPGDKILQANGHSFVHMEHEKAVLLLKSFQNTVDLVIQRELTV
# [27] = target: T9, CARD11, Q9BXL7
# T9 sequence (Q9BXL7 662-765, limits assumed, looked up): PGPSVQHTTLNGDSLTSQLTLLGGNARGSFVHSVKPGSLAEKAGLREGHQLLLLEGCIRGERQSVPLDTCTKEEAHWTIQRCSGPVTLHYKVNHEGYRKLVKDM
# [28] = target: T10, GRIP1_7, Q9Y3R0
# T10 sequence (Q9Y3R0 999-1096, limits assumed, looked up): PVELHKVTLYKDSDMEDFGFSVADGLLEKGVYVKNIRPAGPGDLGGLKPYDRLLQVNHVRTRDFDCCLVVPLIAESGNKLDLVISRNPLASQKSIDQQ
# PDZRN4_1, Q6ZMN7, sequence (Q6ZMN7 213-318): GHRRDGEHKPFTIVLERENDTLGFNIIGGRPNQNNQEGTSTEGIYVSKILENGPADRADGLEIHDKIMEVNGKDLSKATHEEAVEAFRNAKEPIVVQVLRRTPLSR
# LNX1_1, Q8TBB1, sequence (Q8TBB1 261-371): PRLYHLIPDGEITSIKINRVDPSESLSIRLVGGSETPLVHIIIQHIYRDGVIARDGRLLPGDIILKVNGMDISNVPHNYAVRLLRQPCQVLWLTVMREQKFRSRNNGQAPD
# TJP1_2, Q07157, sequence (Q07157 181-274): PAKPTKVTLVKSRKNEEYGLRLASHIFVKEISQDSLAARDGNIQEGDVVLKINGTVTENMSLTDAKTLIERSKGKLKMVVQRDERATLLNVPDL
# IL16_1, Q14005, sequence (Q14005 210-306): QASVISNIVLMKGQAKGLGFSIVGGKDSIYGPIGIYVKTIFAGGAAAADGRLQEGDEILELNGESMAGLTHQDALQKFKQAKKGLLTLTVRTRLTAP
# DLG5_1, Q8TDM6, sequence (Q8TDM6 617-713): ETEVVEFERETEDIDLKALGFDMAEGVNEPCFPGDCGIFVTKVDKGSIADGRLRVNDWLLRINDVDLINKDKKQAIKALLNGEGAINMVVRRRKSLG
# LDB3, O75112, sequence (O75112 1-94): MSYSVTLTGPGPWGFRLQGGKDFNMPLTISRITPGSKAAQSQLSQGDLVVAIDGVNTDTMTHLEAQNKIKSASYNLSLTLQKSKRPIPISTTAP
# LNX1_3, Q8TBB1, sequence (Q8TBB1 500-596): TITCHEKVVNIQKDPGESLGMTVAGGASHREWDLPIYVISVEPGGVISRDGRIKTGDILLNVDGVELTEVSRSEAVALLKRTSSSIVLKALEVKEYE
# NHERF4_2, Q86UT5, sequence (Q86UT5 220-308): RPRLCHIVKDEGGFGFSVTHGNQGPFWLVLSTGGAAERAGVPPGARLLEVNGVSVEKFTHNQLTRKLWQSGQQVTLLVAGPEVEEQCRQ
# SCRIB_1, Q14160, sequence (Q14160 718-814): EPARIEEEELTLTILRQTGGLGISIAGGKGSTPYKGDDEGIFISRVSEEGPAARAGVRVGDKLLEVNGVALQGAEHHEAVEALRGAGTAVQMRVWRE
# MAGI1_2, Q96QZ7, sequence (Q96QZ7 456-580): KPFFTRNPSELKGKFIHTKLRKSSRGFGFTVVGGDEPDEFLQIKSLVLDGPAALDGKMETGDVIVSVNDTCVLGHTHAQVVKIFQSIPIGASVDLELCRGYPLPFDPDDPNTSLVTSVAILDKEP
# GRIP2_5, Q9C0E4, sequence (Q9C0E4 544-642): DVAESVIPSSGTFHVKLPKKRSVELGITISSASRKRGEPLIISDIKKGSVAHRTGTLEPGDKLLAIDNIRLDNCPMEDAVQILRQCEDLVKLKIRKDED
# GRASP, Q7Z6J2, sequence (Q7Z6J2 96-193): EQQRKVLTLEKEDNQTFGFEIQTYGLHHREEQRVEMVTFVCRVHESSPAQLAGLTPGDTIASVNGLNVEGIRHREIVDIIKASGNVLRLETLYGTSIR
# TJP1_3, Q07157, sequence (Q07157 416-512): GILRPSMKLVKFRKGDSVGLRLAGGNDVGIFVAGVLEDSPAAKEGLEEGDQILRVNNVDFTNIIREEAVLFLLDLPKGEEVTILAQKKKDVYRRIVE
# GIPC2, Q8TF65, sequence (Q8TF65 112-203): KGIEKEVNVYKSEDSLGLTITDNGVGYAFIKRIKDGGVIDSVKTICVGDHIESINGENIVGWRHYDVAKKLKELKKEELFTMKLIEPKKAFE
# Inadl_10, Q8NI35, sequence (Q8NI35 1673-1763): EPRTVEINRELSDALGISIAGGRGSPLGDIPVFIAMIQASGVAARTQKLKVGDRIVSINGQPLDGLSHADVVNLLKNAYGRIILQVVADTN
# NHERF4_1, Q86UT5-2, sequence (Q86UT5 other isoform, or with tags, fused parts or gaps): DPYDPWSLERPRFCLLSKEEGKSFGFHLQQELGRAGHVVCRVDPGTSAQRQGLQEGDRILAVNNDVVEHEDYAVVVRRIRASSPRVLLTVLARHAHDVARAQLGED
# MAGI2_3, Q86UL8, sequence (Q86UL8 600-682): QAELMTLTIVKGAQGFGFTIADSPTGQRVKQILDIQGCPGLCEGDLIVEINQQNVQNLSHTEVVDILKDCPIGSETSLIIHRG
# NHERF4_4, Q86UT5, sequence (Q86UT5 464-550): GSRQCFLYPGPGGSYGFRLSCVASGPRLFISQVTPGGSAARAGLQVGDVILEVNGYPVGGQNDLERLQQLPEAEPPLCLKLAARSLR
Binder,pKd [1],pKd [2],pKd [3],pKd [4],pKd [5],pKd [6],pKd [7],pKd [8],pKd [9],pKd [10],pKd [11],pKd [12],pKd [13],pKd [14],pKd [15],pKd [16],pKd [17],pKd [18],pKd [19],pKd [20],other results
"HLRQQGSVEV [EPHB6, O15197]",below the threshold,below the threshold,below the threshold,below the threshold,below the threshold,3.81,below the threshold,below the threshold,below the threshold,below the threshold,below the threshold,below the threshold,below the threshold,below the threshold,below the threshold,below the threshold,below the threshold,below the threshold,below the threshold,4.13,pKd [21]: below the threshold; pKd [22]: below the threshold; pKd [23]: below the threshold; pKd [24]: 3.71; pKd [25]: below the threshold; pKd [26]: below the threshold; pKd [27]: below the threshold; pKd [28]: below the threshold
"TGLWKSETTV [ADGRA2, Q96PE1]",4.24,below the threshold,below the threshold,4.92,3.77,below the threshold,4.04,below the threshold,4.34,below the threshold,below the threshold,4.33,below the threshold,below the threshold,3.6,below the threshold,below the threshold,below the threshold,below the threshold,4.13,pKd [21]: below the threshold; pKd [22]: below the threshold; pKd [23]: 3.72; pKd [24]: below the threshold; pKd [25]: below the threshold; pKd [26]: 3.56; pKd [27]: below the threshold; pKd [28]: below the threshold
